B1: Hairpin Ribozyme (parent)
chain: GUCCUCUUUCACGUGCGCGUGAAAGAGAGAAGUGAACCAGAGAAACACACGUUGUGGUAUAUUACCUGGUA

Variants of: B1
Assay: self-cleavage, relative activity (ratio to wild type); higher = more cleavage; co-transcriptional

In order of falling self-cleavage:
1. G32A G34C  1.23
2. A31G A41C  1.2
3. A31G A71C  1.05
4. A31G C65A  0.891
5. A31G U58C  0.793
6. A30G G34C  0.79
7. A31G U60A  0.677
8. A31G U60G  0.412
9. A31G U58G  0.404
10. A31C G32U  0.348
11. A31G U58A  0.323
12. A30G A59G  0.311
13. G32U A45U  0.3
14. A31G U55C  0.28
15. A31G G42C  0.278
16. A30U U53G  0.277
17. G32A A45C  0.277
18. A30U A49U  0.274
19. A31U U70G  0.27
20. A30G A45C  0.267
21. A31G C48U  0.257
22. A31U U63C  0.247
23. G32U A44U  0.243
24. G32A U53C  0.243
25. G32C U62A  0.234
26. A30U A41U  0.232
27. G32C A43C  0.23
28. A30G A44U  0.227
29. A30G A71U  0.225
30. A30G A71C  0.217
31. A30U A35G  0.217
32. A31U A44G  0.215
33. A30G U67A  0.215
34. A31G C66G  0.211
35. A30U C37U  0.206
36. A30U A49G  0.2
37. A31C C38G  0.196
38. A31C U60G  0.194
39. A30U G51U  0.193
40. A30G C48U  0.19
41. G32A A59G  0.189
42. G32U C48G  0.188
43. A31U G56U  0.187
44. A30G U52G  0.186
45. G32C U55A  0.176
46. A31C G32A  0.173
47. A31G C65G  0.17
48. A31U G32C  0.165
49. A30U C66G  0.165
50. A31C G42A  0.164
51. A30U G51C  0.164
52. A30G G34A  0.164
53. G32A G69U  0.161
54. A30C U70A  0.159
55. A31G C38A  0.157
56. G32C U53C  0.155
57. G32A A71U  0.155
58. A31C G68A  0.152
59. G32A A71C  0.15
60. A30U A31U  0.149
61. G32A U53G  0.146
62. G32C A35G  0.146
63. G32A C46A  0.145
64. G32A A45U  0.143
65. A31U U33G  0.143
66. A30G A35C  0.141
67. A31C C38A  0.141
68. G32C C50G  0.14
69. G32C G51A  0.14
70. A31C C50A  0.139
71. A30U U53A  0.138
72. A31C G68C  0.135
73. A31C C37U  0.134
74. A31U U53C  0.133
75. G32A A59C  0.133
76. A30G G68C  0.132
77. A30G G40C  0.131
78. G32C U52C  0.131
79. G32U A49G  0.128
80. G32C A43U  0.127
81. A30C U70C  0.127
82. A31G C66A  0.127
83. A31C G34C  0.127
84. A31C U53A  0.126
85. G32U C38G  0.125
86. A30G A35G  0.125
87. A30G G54U  0.123
88. A31C G68U  0.122
89. A31U A36U  0.121
90. G32C C48G  0.121
91. G32U A47U  0.121
92. A31U G51U  0.121
93. A31C U62A  0.12
94. A31U A39U  0.12
95. A31G A61G  0.118
96. A30U A43C  0.117
97. A31U U52G  0.117
98. G32A C48G  0.117
99. A31U U52C  0.116
100. G32C G69C  0.115
101. G32C C66G  0.114
102. G32C C48A  0.112
103. G32U A44C  0.112
104. A31U G69C  0.111
105. G32C C50A  0.109
106. A30C U67G  0.109
107. A30U U55G  0.106
108. A31U G32A  0.102
109. G32C A41U  0.101
110. A30G C66U  0.1
111. A31U U67A  0.1
112. A31G C48G  0.1
113. G32C A49C  0.0996
114. G32C A41C  0.0995
115. G32U C38U  0.0994
116. A31C U70C  0.0987
117. A30G A43G  0.0977
118. A30C U67A  0.0972
119. A30U C46U  0.0965
120. A30U C66A  0.096
121. G32A U63C  0.0959
122. A30U A43U  0.0952
123. A30U A61G  0.0939
124. G32C U55G  0.0931
125. A31U A64C  0.0924
126. G32C A47U  0.0919
127. G32C G51C  0.0912
128. G32A G57A  0.0905
129. A30U G40A  0.0894
130. A30G C48G  0.0877
131. A31G G56A  0.0841
132. A31C C65U  0.0838
133. A30G A59C  0.0815
134. A31U U33C  0.0766
135. G32U A47G  0.0761
136. G32C U62G  0.0745
137. A31C A64G  0.0732
138. A31C U52G  0.0727
139. G32U A49C  0.0697
140. A30C U67C  0.0679
141. A30U A44C  0.0664
142. A30U A45C  0.0664
143. A31U A39C  0.0658
144. A30U A44G  0.064
145. A31C U55A  0.0627
146. A31U A43U  0.0597
147. A31C G34U  0.0576
148. G32C A47G  0.0562
149. A31U U67G  0.0559
150. A30G C48A  0.0555
151. A31U U70C  0.0555
152. A31U G56A  0.0543
153. A30G U33A  0.0512
154. A31C C37A  0.0507
155. G32C A61U  0.0498
156. A31U A41G  0.0486
157. G32U A45G  0.0481
158. A31U U52A  0.048
159. A31U C37A  0.0463
160. A30G A35U  0.0439
161. G32C A43G  0.0421
162. A30G G57C  0.0397
163. G32A G56C  0.0365
164. A30G G68A  0.0362
165. A31C C65A  0.0267
166. A30U U55A  0.0256
167. G32U A41G  0.0256
